Assay results reported in the nanobody polyreactivity screen of Harvey et al. (2022).

Assay: yeast display, Sf9 membrane polyspecificity reagent, FACS + sequencing; frameworks hold sequencing errors
In short: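 Nanobodies came from a synthetic yeast display library in Saccharomyces cerevisiae BJ5465, induced with galactose for 36–48 hours and stained for 1 hour at 4 °C with 10% biotinylated, detergent-solubilized Sf9 membrane reagent. Cells were enriched on streptavidin microbeads and then FACS-sorted, with low and high (top ~1%) gates set on anti-HA fluorescence for expression and streptavidin fluorescence for reagent binding. Each polyreactivity label reflects the gate a clone came from. Genes were amplified by colony PCR, sequenced by MiSeq 2 × 250 and filtered by CDR length.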

Row | Sequence | polyreactivity (PSR sort gate)
1 | QVQLVESGGGLVQAGGSLRLSCAASGFIFQKYAMGWYRQAPGKERELVAAIRYDGGSTYYADSVKGRFTISRDNAKNTVYLQMNSLKPEDTAVYYCAAYGPRFLIYPPYRYNYWGQGTQVTVSS | high polyreactivity
2 | QVQLVESGGGLVQAGGSLRLSCAASGFIFSPYAMGGYRHEPGKEREFVAAITSRVGSTYYADSVKGRFTISRDNAKNTVYLQMNSLKPEDTAVYYCAATTDGLVGRPRYDYWGQGTQVTVSS | low polyreactivity
3 | QVQLVESGGGLVQAGGSLRLSCAASGFTFRIYAMGWYRQAPGKERELVATISWSGTSTYYADSVKGRFTISRDYAKNTVFFQMNSLNPEDTAVYYCAKDGVSFYWLNKYYYWGQGTQVTVSS | low polyreactivity
4 | QVLLVESGGGLVQAGGSLRLSCAASGAIFRGYVMGWYSQAPGKERELVAAISYSGGATYYADSVKGRFTLSRDNAKNTVYVQMNSLKPEDTAVYYCAAYRYRYPYRLYDYWGQGTQGTVSS | high polyreactivity
5 | QVQLVESGGGLVQAGGSLRLSCAASGSTFSYNAMGWYRQAPWKERELVAAISWNGDSTYADSVKGRFTISRDNAKNTVYLQMNSLKPEDTAVYYCAKDTIITPGRRKSPRYRHGYWGQGTQVTVSS | low polyreactivity
6 | QVQLVESGGGLVQAGGSLRLSCAASGRTFDPNAMGWYRQAPGKERELVAAIRWTGTSTYYADSVKGRFTISRDNAKNTVYLQMNSLKPEDTAVDYCNARGSYRLRYDYWGQGTQVTVSS | high polyreactivity
7 | QVQLVESGGGLVQAGGSLRLSCAASGFTFDYYAMGRDIPAPGKERELVAAISRAGSTNYADSVKGRFTISRDNAKNTVYLQMNSLKPEDTAVYYCNKGYHSWSRLSQFGWSYDYWGQGTQVTVSS | high polyreactivity
8 | QVQLVESGGGLVQAGGSLRLSCAASGSIFGDNAMGWYRQAPGKERELVAAIDSDGSTNYADSVNGRFTISRDNAKNTVYLQMNSLKPEDTAVYYCAASEPYSKPYTYDYWGQGTQVTVSS | low polyreactivity
9 | QVQLVESGGGLVQEGGSLRLSCAASGFIFTPNTMGWYRQAPGKERELVAAITTNGGRTYYADSVKGRFTISRDNAKNTVYLQMNSLKSEDTAVYYCAARYVSSFGLHAQVWSYYYCGQGTQVTVSS | high polyreactivity
10 | QVQLVESGGGLVQAGGSLRLSSAASGRIFSYNAMGWYRQAPGKERELVASISYSGTSTYYADSVKGRFTISRDNAKNTVYLQMNRLKPEDTAVYYCAALSRRRFGYWGQGTQVTVSS | high polyreactivity
11 | QVQLVESGGGLFQAGGSLRLSCAASGGIFPFYAMGWYRQAPGKERELVAAISSGGSTNYADSVKGRFTISRDNAKNTVYLQMNSLKPEDTAVYYWNTVFQLGEGGSYGYDYWGQGTQVTVSS | low polyreactivity
12 | QVQLVESGGGLVQAGGSLRLSCAASGGTFVYYAMGWYRQAPGKERELVAAINWSGGSTYYADSVKGRFTISRDNAKNTVYLQMNSLKPEDTAVLLLQRSGLRRSGVWFDYWGQGTQVTVSS | low polyreactivity
13 | QVQLVESGGGLVQAGGSLRLSCAASGSTFDPYAMGWYRQAPGKDRELVAAISSDGSTYYADSVKGRFTISRDNAKNTVYLQMNSLKPEYTAVYYCAADPFYWYRSVRGEYWGQGTQVTVSS | low polyreactivity
14 | QVQLVESGGGLVKAGGSLRLSSAASGYNTNTYAMGWYRQAPGKERELVAAISGSGGSTYYADSVKGRFTMSRDNAKTTVYLQMNSLKPEDTAVYYCNVVVRYPSAYDYWGQGTQVTVSS | high polyreactivity
15 | QVQLVESGGGLVQAGGSLPLSCYDSGITIPDYYMGCFRQSPGKERELVAAITYRSGSTYNADSVKGRFTISRDNAKNTVYLQMNSLKQEDTAVFYCAAKRFLLRYYTKQYNYWGLGTQVTVSS | high polyreactivity
16 | QVQLVESGGGLVQAGGSLRLSCAASGFIFYYYAMGWYRQAPGKERELVAGIDKTGGSTYYADSVKGRFTISRDNAKNPVYLQMNSLKPDDTAVYYCNAPYYRGGKDGYWGQGTQVTVSS | high polyreactivity
17 | QVQLVESGGGLVQAGGSLRLSCAASGSIFGYNVMGWYRQAPGKEREFVAAITYRGGGTYADSVKGRFTISRDNAKNTVYLQMNSLKPEDTAVYYCAARWYGWRSRRYDYWGQGTQVTVSS | high polyreactivity
